PMC4837482, “The complex binding mode of the peptide hormone H2 relaxin to its receptor RXFP1” (Nature Communications, 2016)
Changes are numbered by the printed parent chain.

Assays:
RXFP1 [1] = target: T1, RXFP1 (Homo sapiens, UniProt Q9HBX9); experiment: cAMP activity assay (pCRE β-galactosidase reporter), transfected HEK293T cells; type: cell-based; conditions: Mn2+ replacing Eu3+ in the DTPA cage; method not described
T1 construct: transiently transfected human embryonic kidney (HEK) 293T cells expressing full-length RXFP1 and mutants; expressed in transfected cells; host or cells: HEK293T
T1 sequence (Q9HBX9 1-757): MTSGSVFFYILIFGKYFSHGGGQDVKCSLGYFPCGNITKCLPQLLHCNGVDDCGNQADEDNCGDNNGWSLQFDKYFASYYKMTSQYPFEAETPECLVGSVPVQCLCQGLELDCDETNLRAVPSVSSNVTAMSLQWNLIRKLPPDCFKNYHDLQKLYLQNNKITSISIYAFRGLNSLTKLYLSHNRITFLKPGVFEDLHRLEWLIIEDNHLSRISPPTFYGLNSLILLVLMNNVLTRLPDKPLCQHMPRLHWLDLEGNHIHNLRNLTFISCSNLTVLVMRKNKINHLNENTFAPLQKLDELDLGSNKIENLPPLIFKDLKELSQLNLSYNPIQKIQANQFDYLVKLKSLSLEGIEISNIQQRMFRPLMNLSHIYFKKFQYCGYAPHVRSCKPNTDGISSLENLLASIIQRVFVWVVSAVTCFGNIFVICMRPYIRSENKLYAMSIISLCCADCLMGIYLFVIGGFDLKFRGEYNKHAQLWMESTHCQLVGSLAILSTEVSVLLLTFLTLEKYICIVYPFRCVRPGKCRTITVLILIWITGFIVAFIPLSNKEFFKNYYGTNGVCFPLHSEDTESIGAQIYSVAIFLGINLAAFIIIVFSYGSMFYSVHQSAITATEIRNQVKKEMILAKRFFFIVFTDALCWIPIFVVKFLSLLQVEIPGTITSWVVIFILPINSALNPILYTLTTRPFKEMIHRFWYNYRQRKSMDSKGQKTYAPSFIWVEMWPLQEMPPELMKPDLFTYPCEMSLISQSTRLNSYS
Experimental: Media was aspirated and plates stored frozen at −80 °C overnight. […] H2 relaxin dilutions were prepared in minimal media containing 1% DMSO. Positive and negative control stimulations were achieved by incubation with 5 μM Forskolin and minimal media/1% DMSO, respectively. Plates were developed by 10 min of incubation in 25 μl of lysis buffer 1 (100 mM Na2HPO4, pH 8.0, 0.2 mM MgSO4 0.01 mM MnCl2); a further 10 min of incubation in 100 μl of buffer 2 (100 mM Na2HPO4, pH 8.0, 2 mM MgSO4, 0.1 mM MnCl2, 0.5% Triton X-100, 40 mM β-mercaptoethanol); then to each well 25 μl of the β-galactosidase substrate, chlorophenol red-β-D-galactopyranoside (Roche) was added. All incubation steps were conducted with orbital shaking. Color-change was monitored and readings were taken on a Benchmark Plus Microplate Reader (Bio-Rad) at 570 nm. A minimum of three separate experiments were performed, each of them in triplicate, and data were pooled and presented as percentages of the maximum response induced by 5 μM Forskolin±s.e.m.

RXFP1 [2] = target: T1, RXFP1; experiment: Eu-H2 relaxin saturation binding assay, transfected HEK293T cells; conditions: Mn2+ replacing Eu3+ in the DTPA cage; method not described
F50A RXFP1(1–72) = target: T2, F50A RXFP1(1–72) (Homo sapiens, UniProt Q9HBX9, F72A); experiment: Paramagnetic line-broadening (1H-15N HSQC) titration with Mn2+-DTPA-(A)-H2; type: binding; conditions: 50 μM F50A RXFP1(1–72), 0.2 μM Mn2+-DTPA-(A)-H2; versus wild type
T2 construct: GB1 (N, cleaved yes); made in house; host or cells: E. coli BL21 (DE3) trxB
T2 sequence (Q9HBX9 23-94 F72A): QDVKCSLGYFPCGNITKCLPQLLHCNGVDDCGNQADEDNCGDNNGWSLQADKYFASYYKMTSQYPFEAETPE
Experimental: (§1) All RXFP1(1–72) protein samples for nuclear magnetic resonance (NMR) experiments were prepared from lyophilized protein in 50 mM imidazole, with 10 mM CaCl2 at pH 6.8. Recombinant human gene-2 H2 relaxin peptide was kindly provided by Corthera. EL1^(475–486)/EL2-GB1 samples were prepared as described above. Titrant and titrand were dialyzed in the same buffer in the same vessel. All NMR experiments were routinely collected at 25 °C on a 700-MHz Bruker Avance HDIII spectrometer equipped with triple resonance cryoprobe. […] Backbone assignments were made from 3D HNCACB, HNCOCACB, HNCO and HNCACO experiments. Spectra were processed using NMRPipe (ref. [43]) and typically Fourier-transformed after applying Lorentz-to-Gauss window functions in the direct dimension and cosine bells in the indirect dimensions. NMR data were analysed using SPARKY (Goddard, T.D. and Kneller, D.G., University of California, San Francisco). Assignments of the mutant RXFP1(1–72) proteins were determined from the assignments of wild-type RXFP1(1–72).
(§2) ^15N{^1H}-NOE experiments[45] (2,048 × 256 data points) were acquired with a saturation pulse of 4 s and an additional relaxation delay of 5 s. Sample conditions were 150 μM RXFP(1–72) or mutants either without or with 450 μM H2 relaxin. Binding to Mn^2+-DTPA-(A)-H2 to RXFP1(1–72) and mutants was monitored by recording 2D ^1H-^15N HSQC (2,048 × 256 data points) for 0.2 μM Mn^2+-DTPA-(A)-H2 against 50 μM RXFP1(1–72). H2 relaxin and its truncates such as A-chain (9–24), H2/I5 chimera and Phe23Ala A-chain mutant H2 were titrated into a complex of 50 μM RXFP1(1–72) and 0.2 μM Mn^2+-DTPA-(A)-H2 with increasing concentrations ranging from 5 to 50 μM.

F50A^Ins-RXFP1(1–72) = target: T3, F50A^Ins-RXFP1(1–72) (Homo sapiens, UniProt Q9HBX9, INS72A); experiment: as above; type: binding; conditions: 50 μM F50A^Ins-RXFP1(1–72), 0.2 μM Mn2+-DTPA-(A)-H2; versus wild type
T3 construct: GB1 (N, cleaved yes); made in house; host or cells: E. coli BL21 (DE3) trxB
T3 sequence (Q9HBX9 with tags, fused parts or gaps INS72A): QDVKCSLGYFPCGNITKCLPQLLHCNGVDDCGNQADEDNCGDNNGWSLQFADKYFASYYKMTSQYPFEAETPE
Experimental: as §1, §2

F54A-RXFP1(1–72) = target: T4, F54A-RXFP1(1–72) (Homo sapiens, UniProt Q9HBX9, F76A); experiment: as above; type: binding; conditions: 50 μM F54A-RXFP1(1–72), 0.2 μM Mn2+-DTPA-(A)-H2; versus wild type
T4 construct: GB1 (N, cleaved yes); made in house; host or cells: E. coli BL21 (DE3) trxB
T4 sequence (Q9HBX9 23-94 F76A): T2 sequence (Q9HBX9 23-94 F72A) with A50F, F54A
Experimental: as §1, §2

F54A/Y58A RXFP1(1–72) = target: T5, F54A/Y58A RXFP1(1–72) (Homo sapiens, UniProt Q9HBX9, F76A/Y80A); experiment: as above; type: binding; conditions: 50 μM F54A/Y58A RXFP1(1–72), 0.2 μM Mn2+-DTPA-(A)-H2; versus wild type
T5 construct: GB1 (N, cleaved yes); made in house; host or cells: E. coli BL21 (DE3) trxB
T5 sequence (Q9HBX9 23-94 F76A/Y80A): T2 sequence (Q9HBX9 23-94 F72A) with A50F, F54A, Y58A
Experimental: as §1, §2

G41A/D42A-RXFP1(1–72) = target: T6, G41A/D42A-RXFP1(1–72) (Homo sapiens, UniProt Q9HBX9, D64A/G63A); experiment: as above; type: binding; conditions: 50 μM G41A/D42A-RXFP1(1–72), 0.2 μM Mn2+-DTPA-(A)-H2; versus wild type
T6 construct: GB1 (N, cleaved yes); made in house; host or cells: E. coli BL21 (DE3) trxB
T6 sequence (Q9HBX9 23-94 G63A/D64A): T2 sequence (Q9HBX9 23-94 F72A) with G41A, D42A, A50F
Experimental: as §1, §2

G45A/W46A-RXFP1(1–72) = target: T7, G45A/W46A-RXFP1(1–72) (Homo sapiens, UniProt Q9HBX9, G67A/W68A); experiment: as above; type: binding; conditions: 50 μM G45A/W46A-RXFP1(1–72), 0.2 μM Mn2+-DTPA-(A)-H2; versus wild type
T7 construct: GB1 (N, cleaved yes); made in house; host or cells: E. coli BL21 (DE3) trxB
T7 sequence (Q9HBX9 23-94 G67A/W68A): T2 sequence (Q9HBX9 23-94 F72A) with G45A, W46A, A50F
Experimental: as §1, §2

activating RXFP1 (RXFP1 [1]): no difference | binding to RXFP1 (RXFP1 [2]): no difference | line-broadening by Mn2+-DTPA-(A)-H2 (binding) (F50A RXFP1(1–72)): substantially reduced | line-broadening by Mn2+-DTPA-(A)-H2 (binding) (F50A^Ins-RXFP1(1–72)): reduced peak broadening | line-broadening by Mn2+-DTPA-(A)-H2 (binding) (F54A/Y58A RXFP1(1–72)): substantially reduced | line-broadening by Mn2+-DTPA-(A)-H2 (binding) (G41A/D42A-RXFP1(1–72)): attenuated
Substance: Mn^2+-DTPA-(A)-H2: H2 relaxin with a DTPA cage at the N-terminus of the A-chain loaded with Mn2+ (paramagnetic label)
line-broadening by Mn2+-DTPA-(A)-H2 (binding) (F54A-RXFP1(1–72)): less than that observed for wild-type RXFP1(1–72) | line-broadening by Mn2+-DTPA-(A)-H2 (binding) (G45A/W46A-RXFP1(1–72)): substantially less than that observed for wild-type RXFP1(1–72)
